{
  "source": "paper PMC3708844",
  "about": "(2013)",
  "parents": {"B1": {"name": "SHI1 fused with the N-terminal portion of the luciferase [Arabidopsis thaliana] / FRY2/CPL1 fused with the C-terminal part of the luciferase [Arabidopsis thaliana] (parent complex)", "chain 1": "MERSRSKRNYHYDQDYDGDSMPRSKPRYNNNYHFGGGGGGNNRYRGGGGGGGGNGRPSKSHPETMATTTYRILCHDAKAGGVIGKSGTIIKSIRQHTGAWINVHELVPGDAERIIEISDNRRRDPDGRMPSFSPAQEALFSVHDRILESEAQFGYGGPPPEEEEDYGGVRPGGGRVVTRLVVSRMHVGCLLGKGGKIIEQMRIETKTHIRILPRESNLPRCVSLSEEIVQIVGELNAVKNALAIVSSRLRESQHRDRSNFQGRSHSPERSFAAAGDDYMPQLRRQSSDRFPRGNFRNNNFSSRQSNYAEEAPAVPVGENVYSEELVFQILCPADKIVRVVGESQGIIDLLQNEIGVDVRVSDPVAGSDEQIITISSEEAPDDPFFPAQEALLHIQTQIIDLIPDKDNLITTRLLVPSRDSICLEGKAGSVSEISRLTGTSVQILAREEIPRCASINDVVIQITGEIRAAREALVELTLLLRSHMFKELSQKETPPASTSTTGPLEGVAGVMEVASSNNTIQSREGPTSSNLNLQQVSTILPQFKEGFGSVAKAGESEHREEVPVTTSRMAVPLVTRSTLEVVLPEAVVPKLVTKSRNKLAQISEWSGASVTIVEDRPEETQNIIRISGTPEQAERAQSLLQGFILSIQEDGP", "chain 2": "MYSNNRVEVFHGDGRLGELEIYPSRELNQQQDDVMKQRKKKQREVMELAKMGIRISHFSQSGERCPPLAILTTISSCGLCFKLEASPSPAQESLSLFYSSCLRDNKTAVMLLGGEELHLVAMYSENIKNDRPCFWAFSVAPGIYDSCLVMLNLRCLGIVFDLDETLVVANTMRSFEDKIDGFQRRINNEMDPQRLAVIVAEMKRYQDDKNLLKQYIESDQVVENGEVIKVQSEIVPALSDNHQPLVRPLIRLQEKNIILTRINPMIRDTSVLVRMRPSWEELRSYLTAKGRKRFEVYVCTMAERDYALEMWRLLDPEGNLINTNDLLARIVCVKSGFKKSLFNVFLDGTCHPKMALVIDDRLKVWDEKDQPRVHVVPAFAPYYSPQAEAAATPVLCVARNVACGVRGGFFRDFDDSLLPRIAEISYENDAEDIPSPPDVSHYLVSEDDTSGLNGNKDPLSFDGMADTEVERRLKEAISASSAVLPAANIDPRIAAPVQFPMASASSVSVPVPVQVVQQAIQPSAMAFPSIPFQQPQQPTSIAKHLVPSEPSLQSSPAREEGEVPESELDPDTRRRLLILQHGQDTRDPAPSEPSFPQRPPVQAPPSHVQSRNGWFPVEEEMDPAQIRRAVSKEYPLDSEMIHMEKHRPRHPSFFSKIDNSTQSDRMLHENRRPPKESLRRDEQLRSNNNLPDSHPFYGEDASWNQSSSRNSDLDFLPERSVSATETSADVLHGIAIKCGAKVEYKPSLVSSTDLRFSVEAWLSNQKIGEGIGKSRREALHKAAEASIQNLADGYMRANGDPGPSHRDATPFTNENISMGNANALNNQPFARDETALPVSSRPTDPRLEGSMRHTGSITALRELCASEGLEMAFQSQRQLPSDMVHRDELHAQVEIDGRVVGEGVGSTWDEARMQAAERALSSVRSMLGQPLHKRQGSPRSFGGMSNKRLKPDFQRSLQRMPSSGRYS"}},
  "data": [
    {"variants_of": "B1", "experiment": "split-luciferase complementation assay; co-expressed in Arabidopsis protoplasts; means ± SE (n = 3); parent: 160; read off a plot", "units": {"response": "RLU"}, "values": [
      {"variant": "chain 1 E389K", "response": "~110"}
    ]}
  ]
}
